# Results published in the nanobody polyreactivity screen of Harvey et al. (2022).
# Experiment: yeast display, Sf9 membrane polyspecificity reagent, FACS + sequencing; frameworks hold sequencing errors
# Method in brief: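 Nanobodies from a synthetic yeast display library (Saccharomyces cerevisiae BJ5465), induced 36–48 hours with galactose, were stained 1 hour at 4 °C with 10% biotinylated, detergent-solubilized Sf9 membrane reagent, enriched on streptavidin microbeads, then FACS-sorted. Anti-HA (expression) and streptavidin (reagent binding) fluorescence set low and high (top ~1%) gates. Polyreactivity labels come from the gate of origin. Genes were colony-PCR amplified, MiSeq 2 × 250 sequenced and filtered by CDR length.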
row,Sequence,polyreactivity (PSR sort gate)
1,QVQLVESGGGLVQAGGSLRLSCAASGLTFDWYTMGWYRQAPGKERELVATINSGGSTDYADSVKGRFTISRDNAKNNVYLQMNSLKPEDTAVYYCNAEYGYSGVGDDYWGQGTQVTVSS,low polyreactivity
2,QVQLVESGGGLVQAGGSLRLSCAASGLTFDWYTMGWYRQAPGKERELVATINSGGSTDYADSVKRRFTISRDNAKNTVYLQMNSLKPEDTAVYYCAAQPFVIDGGYRGDYWGQGTQVTVSS,low polyreactivity
3,QVQLVESGGGLVQAGGSLRLSCAASGLTFDYYAMGWYRQAPGKERELVAAISASCSSTYYADSVKGRFTISRDNAKNTVYLQMNSLKPEDTAVYYCAAVTKSSVPGSRYDYWGQGTQVTVSS,high polyreactivity
4,QVQLVESGGGLVQAGGSLRLSCAASGLTFDYYAMGWYRQAPGKERELVAAITRRGGGTYYADSVKGRFTISRDNAKNTVYLQMNSLKPEDTAVYYCNADRRSWSALHRYDYWGQGTQVTVSS,high polyreactivity
5,QVQLVESGGGLVQAGGSLRLSCAASGLTFDYYAMGWYRQAPGKERELVAAITSSGGRTYYADSVKGRFTISRDNPNKTVYLQMNSLKPEDTAVYYCAADPYSVYGGDYWGQGTQVTVSS,low polyreactivity
6,QVQLVESGGGLVQAGGSLRLSCAASGLTFEKYAMGWYRQAPGKEREMVAAISQDGGSTYYADSVKGRFTISRDNAKNTVYLQMNSLKPEDTAVYYCAAEDPDSWLPWDLFYYWGQGTQVTVSS,low polyreactivity
7,QVQLVESGGGLVQAGGSLRLSCAASGLTFELYAMGWYRQAPGKERELVAAITWSGGRTYYADSVKGRFTISRDNAKNTVYLQMNSLKPEDTAVYYCAADVYPGYVGSQEYDYWGQGTQVTVSS,low polyreactivity
8,QVQLVESGGGLVQAGGSLRLSCAASGLTFEVYAMGWYRQAPGKERELVAAISSGGGSTYYADSVKGRFTISRDNAKYTVYLQMNSLKPEDSAVYYCNAVAKLYYWRYDYWGQGTQVTVSS,low polyreactivity
9,QVQLVESGGGLVQAGGSLRLSCAASGLTFEYYAMGWYRQAPGKERELVAAITSTGSTNYADSVKGRFTISRDNAKNTVYLQMNSLKPEDTAVYFCNAEKPEGSTLYDYDYWGQGTQVTVSS,low polyreactivity
10,QVQLVESGGGLVQAGGSLRLSCAASGLTFEYYTMGWYRQAPGIERELVAAITSSGGSTYYADSVKGRFTISRDNAKNTVYLQMISLKPEDTAVYYCNAYWTYEFPSYEYWGQGTQVTVSS,low polyreactivity
11,QVQLVESGGGLVQAGGSLRLSCAASGLTFEYYTMGWYRQAPGKERELVAAITSSGGSTYYADSVKGRFTISRDNAKNTVYLQMNSLKPEDTAVYYCAARWRHYFVWKSYDYWGQGTQVTVSS,low polyreactivity
12,QVQLVESGGGLVQAGGSLRLSCAASGLTFEYYTMGWYRQAPGKERELVAAITSSGGSTYYADSVKGRFTISRDNAKNTVYLQMNSLKPEDTAVYYCNAYWTYEFPSYDYWGQGTQVTVSS,low polyreactivity
13,QVQLVESGGGLVQAGGSLRLSCAASGLTFFAYPMGWYRQAPGKERELVAVITSSGGSTNYADSVKGRFTISRDTPKNTVYLQMNSLKPEDTAVYYCAAYIRYTLPTSRGFGYWGQGTQVTVSS,high polyreactivity
14,QVQLVESGGGLVQAGGSLRLSCAASGLTFFKYTMGWYRQAPGKERELVAAISSSGGSTRYADSVKGRFTISRDNAKNTVYLQMNSLKPEDTAVYYCAKRGYTSSRRWIYDYWGQGTQVTVSS,high polyreactivity
15,QVQLVESGGGLVQAGGSLRLSCAASGLTFFKYTMGWYRQPPGKERELVSAINGGGSTNYADSVKGRFSISRDNAKNTVYLQMNSLKPEDTAVYYCAAGLQYGYDYWGQGTQVTVSS,low polyreactivity
16,QVQLVESGGGLVQAGGSLRLSCAASGLTFGFYAMGWYRQAPGKERELVAGISNGGSTNYADSVKARFTISRDNAKNTVYLQMNSLKPEDTAVFYCAAQGEYGFTAYYPGDSWGQGTQVTVSS,low polyreactivity
17,QVQLVESGGGLVQAGGSLRLSCAASGLTFGGNAMGWYRQAPGKERELVAAISGSGGRTYYADSVKGRFTISRDNEKNTVYLQMNSLKPEDTAVYYCNAATNRRTSDYWGQGTQVTVSS,high polyreactivity
18,QVQLVESGGGLVQAGGSLRLSCAASGLTFGGSAMGWYRQAPGKERELVAGISSSGNTNYADSVKGRFTISRDNAKNTVYLQMISLKPEDTAVYYCAADENITYPVYDMYYWGQGTQVTVSS,low polyreactivity
19,QVQLVESGGGLVQAGGSLRLSCAASGLTFGNYSKGWYRQAPGKERELVAAISKRGGTTYYADSVKGRFTISRDNAKNTVYLQMNSLKPEDTAVYYCAAQVGRGYEVYPVYKYGYWGQGTQVTVSS,high polyreactivity
20,QVQLVESGGGLVQAGGSLRLSCAASGLTFGRYAMGWYRQAPGKERELVAVINRGGNTYYADSVKGRFTISRDNAKNTVYLQMNSLKPEDTAVYYCAADYLRWAGRYFSWDYDYWGQGTQVTVSS,high polyreactivity
21,QVQLVESGGGLVQAGGSLRLSCAASGLTFGRYTMGWYRQAPGKERELVAAISYSGGSTYYADSVKGRFTISRDNAKNTVYLQMNSLKPEDTAVYYCAKRWTGLGGYYYWGQGTQVTVSS,high polyreactivity
22,QVQLVESGGGLVQAGGSLRLSCAASGLTFGSNTMGWYRQAPGKERELVAAITSNGGSTYYADSVKRRFTISRDYAKNTVYLQMNSLKPEDTAVYYCAARSYDGYYRYYYWGQGTQVTVSS,low polyreactivity

row,Sequence,polyreactivity (PSR sort gate)
1,QVQLVESGGGLVQAGGSLRLSCAASGLTFGTNSMGWYREAPGKEMELVAAISTSSGSTYYADSVKGRFTISRDNAKNTVYLLMNRLKPEDTAVFYCAAVTVTKLSYYRYYYWGQCTQVTVSS,low polyreactivity
2,QVQLVESGGGLVQAGGSLRLSCAASGLTFGTYAMGWYRQAPGKERELVAAISGTGGTTYYADSVKGRFTISRDNAKNTVYLKMNSLKPEDTAVYYCNKRWRRPYPYDYWGQGTQVTVSS,high polyreactivity
3,QVQLVESGGGLVQAGGSLRLSCAASGLTFGVNAMGWSRQAPGKERELVAAISGSGGRTNYADSVKGRFTISRDNAKNTVYLQMNSLKPEDTAVYYCNARFPDWALSEISHSTTYGYWGQGTQVTVSS,low polyreactivity
4,QVQLVESGGGLVQAGGSLRLSCAASGLTFGYNAMGWYRQAPGKERELVAAISSNGGRTYYADSVKGRFTISRDNAKNTVYLQMNSLKPEDTAVYYCNVVYSRSRPYDYWGQGTQVTVSS,high polyreactivity
5,QVQLVESGGGLVQAGGSLRLSCAASGLTFHPYAMGWYRQAPGKERELVAAISSRGTSTYYADSVKGRFTISRDNAKNTVYLQMNSLKPEDTAVYYCAAEVITIGLYRYGYWGQGTQVTVSS,high polyreactivity
6,QVQLVESGGGLVQAGGSLRLSCAASGLTFHRYAMGWYRQAPGKERELVAAINYSGGRTYYADSVKGRFTISRDNAKNTVYLQMNSLKPEDTAVYYCAAPRASGYYWGQGTQVTVSS,high polyreactivity
7,QVQLVESGGGLVQAGGSLRLSCAASGLTFIDYAMGWYRQAPGKERELVAAITKSGGGTYYADSVKGRFTISRDNAKNTVYLQMNSLKPEDTAVYYCAAVYRTRLYYYWGQGTQVTVSS,high polyreactivity
8,QVQLVESGGGLVQAGGSLRLSCAASGLTFIEYAMGWYRQAPGKERELVAAISSGGRTYYADSVKGRFTISRDNAKNTVYLQMNSLKPEDTAVYYCNARGYRRWYNYWGQGTQVTVSS,high polyreactivity
9,QVQLVESGGGLVQAGGSLRLSCAASGLTFILNAMGWYRQAPGKEREFVAAISRSGVRTYYADSVKGRFTISRDNAKNTVYLQMNSLKPEDTAVYYCARVAPASGVRWYYYWGQGTQVTVSS,high polyreactivity
10,QVQLVESGGGLVQAGGSLRLSCAASGLTFIYYAMGWYRQAPGKERELVAGITRRGGSTYYADSVKGRFTISRDNAKNNVYLQMNSLKPEDTAVYYCAKSPVYRFDSWGQGTQVTVSS,high polyreactivity
11,QVQLVESGGGLVQAGGSLRLSCAASGLTFIYYAMGWYRQAPGKEWELVAAISVSGGSTYYADSVKGRFTISRDNAKNTVYLQMNSLKPEDTAVYYCAADWFVHKPRYHSTFDFWGQGTQVTVSS,low polyreactivity
12,QVQLVESGGGLVQAGGSLRLSCAASGLTFKFYDMGWYRQAPVKEREFVAGITSSGGTTYYADSVKGRFTISRDNAKNTVYLQMNSLKPEVTAVYYCAAADIDDGPFDSWGQGTQVNVSS,low polyreactivity
13,QVQLVESGGGLVQAGGSLRLSCAASGLTFKTYAMGWYRQAPGKERELVAAISRSGGSTSYADSVKGRFTISRDNAKNTVYLQMNSLKPEDTAVYYCAAKTYEPRKYEYWGQGTQVTVSS,high polyreactivity
14,QVQLVESGGGLVQAGGSLRLSCAASGLTFKVNPMGGYRQAPGKERELVPAISSGDRTYYADSVKGRFTISRDNAKNTVDLQMNSLKPEDTAVYYCNARGHNRYGTLLGFGRVPGYDYWGQGTQVTVSS,low polyreactivity
15,QVQLVESGGGLVQAGGSLRLSCAASGLTFKYYAMGWYRQAPGKERELVAAINRSGSSTYYADSVKGRFTISRDNAKNTVYLQMNSLKPEDTAVYYCAKDSFTSTRQYDYWGQGTQVTVSS,low polyreactivity
16,QVQLVESGGGLVQAGGSLRLSCAASGLTFMYYAMGWYRQAPGKERELVAAISKGGGSTYYADSVKGRFTISRDNAKNTVYLQMNSLKPEDTAVYYCNADKVTRVTYWDDSWGLGTQVTVSS,high polyreactivity
17,QVQLVESGGGLVQAGGSLRLSCAASGLTFNAYPMGCYRQAPGKEWELVAAITSRGSSTYYADSVKGRFTISRDNAKNTVYLQMNSLKPEDTAVYYCAARQRGYYYSRRYDYWGQGTQVTVSS,high polyreactivity
18,QVQLVESGGGLVQAGGSLRLSCAASGLTFNFYAKGWYRQAPGKEREFVAAISRSGGSTHYADSVKGRFTISRDYAKYTVYLQMYSLKPEDTAVYYCAADGGRKNYDYWGQGTQVTVSS,high polyreactivity
19,QVQLVESGGGLVQAGGSLRLSCAASGLTFNPNAMGWYRQAPGKERDLVADITYRGGSTYYADSEKGRFTISRDNAKNTDYLQMYSLKPEDTAVYYCAAQYIGWHLYWYDYWGQGTQVTVSS,low polyreactivity
20,QVQLVESGGGLVQAGGSLRLSCAASGLTFNVYAMGWYRQAPGKERELVASITKRGGSTYYADSVKGRFTISRDNAKNTVYLQMNSLKPEDTAVYYCAADGLTGSIYRATGYYWGQGTQVTVSS,high polyreactivity
21,QVQLVESGGGLVQAGGSLRLSCAASGLTFPDNAMGWYRQAPGKERELVAAITIDGSTYYADSVKGRFTISRDNAKNTVYLQMNSLKPEDTSVYYCNALVGVPYAMYYWGQGTQVTVSS,low polyreactivity
